Data published in patent publication US20160046675A1 (US Dept. of Health and Human Services, published 2016).

Target: RSV F glycoprotein on RSV-infected HEp-2 cells and on RSV virions (respiratory syncytial virus; strain not …, UniProt P03420 26-109; P03420 137-574)
Experiment: cell-based or functional assay

RSV F glycoprotein on RSV-infected HEp-2 cells and on RSV virions, sequence (P03420 26-109, chain 1 of 2): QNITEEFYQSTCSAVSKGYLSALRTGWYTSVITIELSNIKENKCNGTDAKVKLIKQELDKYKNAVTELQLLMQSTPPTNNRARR
RSV F glycoprotein on RSV-infected HEp-2 cells and on RSV virions, sequence (P03420 137-574, chain 2 of 2): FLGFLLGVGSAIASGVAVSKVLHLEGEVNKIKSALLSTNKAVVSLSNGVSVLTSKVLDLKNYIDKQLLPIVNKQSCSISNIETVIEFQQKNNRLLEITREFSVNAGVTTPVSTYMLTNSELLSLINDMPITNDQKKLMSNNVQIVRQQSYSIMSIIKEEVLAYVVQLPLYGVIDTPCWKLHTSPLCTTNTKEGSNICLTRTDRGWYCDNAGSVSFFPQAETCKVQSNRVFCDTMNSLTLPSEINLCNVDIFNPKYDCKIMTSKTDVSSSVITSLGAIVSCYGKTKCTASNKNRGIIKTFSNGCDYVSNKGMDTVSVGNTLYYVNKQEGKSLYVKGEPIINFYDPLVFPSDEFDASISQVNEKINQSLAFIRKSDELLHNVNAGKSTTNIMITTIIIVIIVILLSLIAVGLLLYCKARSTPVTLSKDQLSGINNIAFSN

B1: AM22 monoclonal antibody (antibody, V domains shown)
VH: QVQLVQSGAEVKKPGATVKVSCKISGHTLIKLSIHWVRQAPGKGLEWMGGYEGEVDEIFYAQKFQHRLTVIADTATDTVYMELGRLTSDDTAVYFCGTLGVTVTEAGLGIDDYWGQGTLVTVSS
VL: EIVLTQSPGTLSLSPGERATLSCRASQIVSRNHLAWYQQKPGQAPRLLIFGASSRATGIPVRFSGSGSGTDFTLTINGLAPEDFAVYYCLSSDSSIFTFGPGTKVDFKR
With B1 the “RSV neutralization (flow cytometry, RSV-GFP on HEp-2 cells)” value was ~50 fold (potency relative to palivizumab).
